For assay [1], the target named is long carboxyl terminus (CTL) of rat Cav1.3L (rat).
The target is the same in assay [2]. The source holds these as a separate data set.
Assay [3] shares this target. The source holds these as a separate data set.

Sequence of long carboxyl terminus (CTL) of rat Cav1.3L (rat) (P27732 1460-2155): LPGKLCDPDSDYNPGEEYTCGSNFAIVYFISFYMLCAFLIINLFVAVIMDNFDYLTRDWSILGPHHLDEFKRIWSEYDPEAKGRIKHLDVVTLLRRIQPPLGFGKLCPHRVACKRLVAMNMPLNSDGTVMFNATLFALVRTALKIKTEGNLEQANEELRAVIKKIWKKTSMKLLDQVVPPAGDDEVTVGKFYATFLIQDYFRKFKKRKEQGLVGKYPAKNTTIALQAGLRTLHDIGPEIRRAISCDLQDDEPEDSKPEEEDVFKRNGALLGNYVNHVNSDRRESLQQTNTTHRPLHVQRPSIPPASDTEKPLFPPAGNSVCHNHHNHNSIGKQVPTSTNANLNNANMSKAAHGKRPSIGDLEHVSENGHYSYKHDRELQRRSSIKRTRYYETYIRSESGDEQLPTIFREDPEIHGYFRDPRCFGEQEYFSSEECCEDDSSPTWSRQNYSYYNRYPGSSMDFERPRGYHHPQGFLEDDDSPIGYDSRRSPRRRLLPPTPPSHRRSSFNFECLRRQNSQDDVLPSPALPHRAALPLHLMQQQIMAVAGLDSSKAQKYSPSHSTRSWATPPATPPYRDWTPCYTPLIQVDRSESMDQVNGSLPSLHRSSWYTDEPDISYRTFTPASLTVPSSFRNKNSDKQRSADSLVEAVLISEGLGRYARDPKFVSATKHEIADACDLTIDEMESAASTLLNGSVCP

Consider rat Snapin2 (natural protein), for which the maximal chord conductance of Cav1.3L channels without vs. with Snapin2 in HEK-293 cells in assay [1] came to 1.86 nS/pF. In assay [2], this molecule had an average peak current amplitude at −10 mV of Cav1.3L/β3 with vs. without Snapin2 in Xenopus oocytes of -2410 nA and a maximal chord conductance of Cav1.3L channels without vs. with Snapin2 in Xenopus oocytes of 28.1 μS.

B1: rat Snapin1 (natural protein)
chain: MAAAGSAAVSGAGTPVAGPTGRDLFAEGLLEFLRPAVQQLDSHVHAVRESQVELREQIDNLATELCRINEDQKVALDLDPYVKKLLNARRRVVLVNNILQNAQERLRRLNHSVAKETARRRAMLDSGVYPPGSPSK
Turning to B1, the maximal normalized chord conductance of Cav1.3L without or with Snapin1 in HEK-293 cells in assay [3] amounted to 2.09 nS/pF.

The values are drawn from article PMC8537452.
